In the assay the target is FLAG epitope Trypsin site N-terminally tagged 9 repeat GG biopolymer (SEQ ID NO:20).

Here are results for 1 substance from patent US5580712.

For the substance Trypsin (type XI DPCC treated) (enzyme), the completeness of proteolytic cleavage, from relative mobility on SDS gels amounted to 100%.
